# Assay results from doi:10.1101/2022.11.23.517751.
# Target: VZV gB[H527P] on extracellular vesicles (EVs) from BHK-21 cells (varicella-zoster virus (VZV)) (UniProt Q4JR05)
# Assay: cryo-EM structure
substance,measurement,value
VZV gB[H527P] on extracellular vesicles (EVs) from BHK-21 cells (from UniProt Q4JR05 72-931) (natural protein),stoichiometry N,3
